{"source": "patent US20210246451", "about": "“APTAMER FOR ADAMTS5 AND USE FOR APTAMER FOR ADAMTS5” (RIBOMIC INC., published 2021)", "binders": {"B1": {"name": "SEQ ID NO: 2 (ssRNA)", "RNA": "GGGUACGACCGUCGUACGAUUGGGCCUCCACAGCUGCUCAGCUUGGACUAAACCAAUAAGAGACUAACGCCUAGCGUAC", "modifications": "2'-F pyrimidines; 3' A16 tail for SPR"}, "B2": {"name": "SEQ ID NO: 1 (ssRNA)", "RNA": "GGGUACGACCGUCGUACGAUUGGGGCCUCCACAGCUGCUCAGCUUGGACUAAACCAAUAAGAGACUAACGCCUAGCGUAC", "modifications": "2'-F pyrimidines, 2'-OH purines; 3' A16 tail for SPR"}}, "key": {"[1]": {"molecular_target": "T1, ADAMTS5 (UniProt Q9UNA0 Q9UNA0:262-622)", "T1 sequence": "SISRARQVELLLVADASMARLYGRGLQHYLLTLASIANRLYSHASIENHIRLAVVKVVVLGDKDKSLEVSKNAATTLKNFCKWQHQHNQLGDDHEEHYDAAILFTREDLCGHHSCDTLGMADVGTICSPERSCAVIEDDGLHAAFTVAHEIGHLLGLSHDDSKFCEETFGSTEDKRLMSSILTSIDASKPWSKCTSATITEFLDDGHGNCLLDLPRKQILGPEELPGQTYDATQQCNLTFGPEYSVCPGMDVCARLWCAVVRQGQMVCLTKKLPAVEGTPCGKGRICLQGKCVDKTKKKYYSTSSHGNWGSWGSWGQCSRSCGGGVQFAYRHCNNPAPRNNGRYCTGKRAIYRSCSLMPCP", "test": "inhibition; method 2 ELISA, 0.2 nM enzyme; method 1 77.5%", "details": "tags: R&D Systems", "experimental": "The substrate cleavage efficiency of ADAMTS5 under these reaction conditions was 80-100%. The inhibition rate of the test substance was calculated using the following equation.\nOn the other hand, the aptamers having the sequences shown by the sequences of SEQ ID NOs: 11(34)-11(35) and SEQ ID NO: 15 were evaluated by the following method (evaluation method 2). The cleavage reaction of the substrate (aggrecan G1-IGD-G2) by ADAMTS5 was performed in the same manner as in Example 1 except the following points. The differences are that the final concentrations of ADAMTS5 and the substrate were respectively 0.2 nM and 400 nM (48 μg/mL), and that the enzyme reaction time was 30 min. […] The cleaved substrate was quantified by a sandwich ELISA method using two kinds of anti-aggrecan antibodies. […] Using this, the amount of cleaved substrate can be quantified. […] The inhibition rate of the test substance was calculated using the following equation.\nThe aptamers having the sequences shown in SEQ ID NOs: 28(l)-28(18) (SEQ ID NO: 28 lineage) and SEQ ID NOs: 29(1)-29(3) (SEQ ID NO: 29 lineage) were all produced by chemical synthesis. Whether these aptamers inhibit the enzyme activity of ADAMTS5 was evaluated by a method similar to that in Example 1 and Example 5. In the Table, “n.d.” means not determined. […] “n.d.” means not determined."}, "[2]": {"molecular_target": "T1, ADAMTS5", "test": "inhibition; 30 nM", "details": "tags: R&D Systems", "experimental": "(§1) Whether an aptamer having the nucleotide sequence shown in SEQ ID NO: 1 inhibits the enzyme activity of ADAMTS5 was evaluated by the following method. As a substrate of ADAMTS5, the G1-IGD-G2 domain of aggrecan (manufactured by R&D systems) was used. ADAMTS5 specifically cleaves in between the 392nd glutamic acid and the 393rd alanine in the G1-IGD-G2 domain and produces two fragments. These fragments have faster electrophoretic mobility than uncleaved G1-IGD-G2. Thus, the enzyme activity of ADAMTS5 can be measured by quantifying the band intensity of G1-IGD-G2 by SDS-PAGE electrophoresis. The assay was performed in a solution A buffer with a reaction mixture volume of 10 μL. First, a mixture (10 μL) of a nucleic acid and ADAMTS5 was prepared and incubated at 25° C. for 15 min. To a substrate solution (5 μL) diluted with solution A was added a mixture (5 μL) of the nucleic acid and ADAMTS5 to start the enzyme reaction. The final concentration of ADAMTS5 in the reaction solution was 5 nM, and the final substrate concentration was 50 μg/mL. The reaction solution was incubated at 37° C. for 2 hr, 2 μL of solution D was added, and the mixture was heated at 95° C. for 2 min to stop the enzyme reaction of ADAMTS5. Solution D contains 0.25 M tris (pH 6.8), 10% SDS, 50% glycerol, 0.25% bromo phenolblue, and 20% 2-mercaptoethanol. The heat-treated reaction solution was electrophoresed by 7.5% SDS-PAGE and stained with SYPRO Orange (manufactured by Sigma-Aldrich). The staining was performed according to the manual of Sigma-Aldrich and detected using STORM840 manufactured by GE Healthcare. […] The amount of uncleaved substrate in each reaction solution was quantified from the band intensity and the standard curve. The substrate cleavage efficiency of ADAMTS5 under these reaction conditions was 80-100%. The inhibition rate of the test substance was calculated using the following equation.\nThe nucleic acids shown in SEQ ID NOs: 3(1)-3(16) were all produced by chemical synthesis. Whether these nucleic acids inhibit the enzyme activity of ADAMTS5 was determined by a method similar to that in Example 1."}, "[3]": {"molecular_target": "T1, ADAMTS5", "test": "SPR; RU ratio <10%, same level as 40N; 300 mM NaCl, Ca, Mg", "details": "tags: R&D Systems", "experimental": "The binding activity of aptamers having the nucleotide sequences shown in SEQ ID NOs: 1 and 2 to ADAMTS5 was evaluated by the surface plasmon resonance method. Biacore T100 manufactured by GE Healthcare was used for the measurement. The SA chip was used as the sensor chip, which had streptavidin immobilized thereon. About 800 RU of a 16-nucleotide Poly dT with biotin at the 5′-terminal was bound on the chip. […] ADAMTS5 for analyte was prepared at 0.1 μM, and injected at a flow rate so of 30 μL/min for 60 sec. As the running buffer, solution C was used. The solution C is a mixed solution of 300 mM sodium chloride, 5.4 mM potassium chloride, 1.8 mM calcium chloride, 0.8 mM magnesium chloride, 20 mM tris (pH 7.6), and 0.05% Tween20.\nSEQ ID NO: 2 has a sequence with one base deletion from the continuous 4 G bases in the consensus sequence, and it was shown from the measurement results of the binding activity that the continuous 4 G bases in the consensus sequence are important for the activity of aptamers. Sensorgram showing the binding of an aptamer having the nucleotide sequence shown in SEQ ID NO: 1 to ADAMTS5 is presented in FIG. 2. […]"}, "[4]": {"molecular_target": "T1, ADAMTS5", "test": "inhibition; 10 nM", "details": "tags: R&D Systems", "experimental": "as §1, with “The substrate cleavage efficiency of ADAMTS5 under these reaction conditions was 80-100%.” left out\nThe nucleic acids of SEQ ID NOs: 10-12 were all produced by chemical synthesis. Whether aptamers having the nucleotide sequences shown by these nucleic acids inhibit the enzyme activity of ADAMTS5 was determined by a method similar to that in Example 1."}, "[5]": {"molecular_target": "T1, ADAMTS5", "test": "inhibition; 5 nM ADAMTS5, aggrecan G1-IGD-G2 cleavage, 145 mM NaCl, Ca, Mg, 37 C", "details": "tags: R&D Systems; stem-internal loop-stem-loop (MFOLD)", "experimental": "as §1, with “The final concentration of ADAMTS5 in the reaction solution was 5 nM, and the final substrate concentration was 50 μg/mL. The reaction solution was incubated at 37° C. for 2 hr, 2 μL of solution D was added, and the mixture was heated at 95° C. for 2 min to stop the enzyme reaction of ADAMTS5. Solution D contains 0.25 M tris (pH 6.8), 10% SDS, 50% glycerol, 0.25% bromo phenolblue, and 20% 2-mercaptoethanol. The heat-treated reaction solution was electrophoresed by 7.5% SDS-PAGE and stained with SYPRO Orange (manufactured by Sigma-Aldrich).” left out, “The substrate cleavage efficiency of ADAMTS5 under these reaction conditions was 80-100%.” left out\nThe concentration of an inhibitor necessary for inhibiting 50% of the enzyme activity (IC₅₀) was determined. […]"}}}
{"binder": "CGUAGGGGCCUCCACAGCGUAAGCUUGGACUUAAACCACG (ssRNA, as SEQ 28 plus 2'-OMe at U31)", "note": "[28(3)]", "values": [{"measurement": "IC50", "setting": "[1]", "result": 0.108, "unit": "nM"}]}
{"binder": "GGAUUGGGGCCUCCACAGCUGCUCAGCUUGGACUAAACCAAUCC (ssRNA, 2'-OMe at 18-20,25-27; 2'-F other pyrimidines)", "note": "[3(3)]", "values": [{"measurement": "activity", "setting": "[2]", "result": 48.6, "unit": "% inhibition"}]}
{"binder": "GGAUUGGGGCCUCCACAGCUGCUCAGCUUGGACUAAACCAAUCC (ssRNA, 2'-OMe at A36; 2'-F pyrimidines)", "note": "[3(4)]", "values": [{"measurement": "activity", "setting": "[2]", "result": 53.1, "unit": "% inhibition"}]}
{"binder": "B1", "values": [{"measurement": "binding result", "setting": "[3]", "result": "no binding"}]}
{"binder": "AUUGGGGCCUCCACAGCGCUCGCUUGGACUAAACCAAU (ssRNA, 2'-OMe at 1-5,15-24,26,32-38; 2'-F other pyrimidines)", "note": "[SEQ ID NO: 11]", "values": [{"measurement": "activity", "setting": "[4]", "result": 59.8, "unit": "% inhibition"}]}
{"binder": "AUUGGGGCCUCCACAGCUGCUCAGCUUGGACUAAACCAAU (ssRNA, 2'-OMe at 1-5,15-26,28,34-40; 2'-F other pyrimidines)", "note": "[SEQ ID NO: 10]", "values": [{"measurement": "activity", "setting": "[4]", "result": 65, "unit": "% inhibition"}]}
{"binder": "UUGGGGCCUCCACAGCGCUCGCUUGGACUAAACCAA (ssRNA, 2'-OMe at 1-4,14-23,25,31-36; 2'-F other pyrimidines)", "note": "[SEQ ID NO: 12]", "values": [{"measurement": "activity", "setting": "[4]", "result": 71.1, "unit": "% inhibition"}]}
{"binder": "B2", "values": [{"measurement": "IC50", "setting": "[5]", "result": 16.8, "unit": "nM"}]}
